Bridge positions count the residues as written; N and C are the ends. Square brackets hold non-standard residues; d marks the D form. * marks the point of attachment. 5FAM = O=C1OC2(c3ccc(O)cc3Oc3cc(O)ccc32)c2ccc(C(=O)*)cc21; Ach = 2-aminocyclohexane-1-carboxylic acid; hArg = N=C(N)NCCCC[C@H](N)C(=O)O; Dap = NC[C@H](N)C(=O)O; Pentanoyl = CCCCC(=O)*
B1: Compound 113 (peptide)
peptide: Pentanoyl-WNLVRIGTTR-NH2
SMILES: CCCCC(=O)N[C@@H](Cc1c[nH]c2ccccc12)C(=O)N[C@@H](CC(N)=O)C(=O)N[C@@H](CC(C)C)C(=O)N[C@H](C(=O)N[C@@H](CCCNC(=N)N)C(=O)N[C@H](C(=O)NCC(=O)N[C@H](C(=O)N[C@H](C(=O)N[C@@H](CCCNC(=N)N)C(N)=O)[C@@H](C)O)[C@@H](C)O)[C@@H](C)CC)C(C)C
B2: Compound 112 (peptide)
peptide: Pentanoyl-WNLVRIGLTR-NH2
SMILES: CCCCC(=O)N[C@@H](Cc1c[nH]c2ccccc12)C(=O)N[C@@H](CC(N)=O)C(=O)N[C@@H](CC(C)C)C(=O)N[C@H](C(=O)N[C@@H](CCCNC(=N)N)C(=O)N[C@H](C(=O)NCC(=O)N[C@@H](CC(C)C)C(=O)N[C@H](C(=O)N[C@@H](CCCNC(=N)N)C(N)=O)[C@@H](C)O)[C@@H](C)CC)C(C)C
B3: Compound 114 (peptide)
peptide: Pentanoyl-WNLVRIGTLR-NH2
SMILES: CCCCC(=O)N[C@@H](Cc1c[nH]c2ccccc12)C(=O)N[C@@H](CC(N)=O)C(=O)N[C@@H](CC(C)C)C(=O)N[C@H](C(=O)N[C@@H](CCCNC(=N)N)C(=O)N[C@H](C(=O)NCC(=O)N[C@H](C(=O)N[C@@H](CC(C)C)C(=O)N[C@@H](CCCNC(=N)N)C(N)=O)[C@@H](C)O)[C@@H](C)CC)C(C)C
B4: Compound 111 (peptide)
peptide: Pentanoyl-WNLVRIGLLR-NH2
SMILES: CCCCC(=O)N[C@@H](Cc1c[nH]c2ccccc12)C(=O)N[C@@H](CC(N)=O)C(=O)N[C@@H](CC(C)C)C(=O)N[C@H](C(=O)N[C@@H](CCCNC(=N)N)C(=O)N[C@H](C(=O)NCC(=O)N[C@@H](CC(C)C)C(=O)N[C@@H](CC(C)C)C(=O)N[C@@H](CCCNC(=N)N)C(N)=O)[C@@H](C)CC)C(C)C
B5: Compound 118 (peptide)
peptide: Pentanoyl-WNLV[hArg]IGLTR-NH2
SMILES: CCCCC(=O)N[C@@H](Cc1c[nH]c2ccccc12)C(=O)N[C@@H](CC(N)=O)C(=O)N[C@@H](CC(C)C)C(=O)N[C@H](C(=O)N[C@@H](CCCCNC(=N)N)C(=O)N[C@H](C(=O)NCC(=O)N[C@@H](CC(C)C)C(=O)N[C@H](C(=O)N[C@@H](CCCNC(=N)N)C(N)=O)[C@@H](C)O)[C@@H](C)CC)C(C)C
notes: also called n-BuC(O)-WNLV(homoR)IGLTR-NH2
B6: Compound 73 (peptide)
peptide: Ac-CRLPWNLARIGLPC-NH2
modifications: disulfide 1-14
SMILES: CC[C@H](C)[C@@H]1NC(=O)[C@H](CCCNC(=N)N)NC(=O)[C@H](C)NC(=O)[C@H](CC(C)C)NC(=O)[C@H](CC(N)=O)NC(=O)[C@H](Cc2c[nH]c3ccccc23)NC(=O)[C@@H]2CCCN2C(=O)[C@H](CC(C)C)NC(=O)[C@H](CCCNC(=N)N)NC(=O)[C@@H](NC(C)=O)CSSC[C@@H](C(N)=O)NC(=O)[C@@H]2CCCN2C(=O)[C@H](CC(C)C)NC(=O)CNC1=O
B7: Compound 96 (peptide)
peptide: Ac-FCLWNLKRIGAQCWF-NH2
modifications: disulfide 2-13
SMILES: CC[C@H](C)[C@@H]1NC(=O)[C@H](CCCNC(=N)N)NC(=O)[C@H](CCCCN)NC(=O)[C@H](CC(C)C)NC(=O)[C@H](CC(N)=O)NC(=O)[C@H](Cc2c[nH]c3ccccc23)NC(=O)[C@H](CC(C)C)NC(=O)[C@@H](NC(=O)[C@H](Cc2ccccc2)NC(C)=O)CSSC[C@@H](C(=O)N[C@@H](Cc2c[nH]c3ccccc23)C(=O)N[C@@H](Cc2ccccc2)C(N)=O)NC(=O)[C@H](CCC(N)=O)NC(=O)[C@H](C)NC(=O)CNC1=O
B8: Compound 97 (peptide)
peptide: Ac-GSGCWNL[Dap]RIGSQGC-NH2
modifications: disulfide 4-15
SMILES: CC[C@H](C)[C@@H]1NC(=O)[C@H](CCCNC(=N)N)NC(=O)[C@H](CN)NC(=O)[C@H](CC(C)C)NC(=O)[C@H](CC(N)=O)NC(=O)[C@H](Cc2c[nH]c3ccccc23)NC(=O)[C@@H](NC(=O)CNC(=O)[C@H](CO)NC(=O)CNC(C)=O)CSSC[C@@H](C(N)=O)NC(=O)CNC(=O)[C@H](CCC(N)=O)NC(=O)[C@H](CO)NC(=O)CNC1=O
notes: also called Ac-GSG-CWNL(Dpr)RIGSQGC-NH2

biological target: T1, human PCSK9 (proprotein convertase subtilisin/kexin type 9), His-tagged, full-length (human, UniProt A8T644 31-152; Q8NBP7 153-692, limits assumed); assay: TR-FRET competition vs EGF(A)-Fc on His-PCSK9
T1 construct: The secreted protein is the prodomain plus the catalytic/Cys-rich part (N-terminus S153) after autocleavage; also called His-PCSK9; NARC-1
T1 sequence (A8T644 31-152 limits assumed, chain 1 of 2): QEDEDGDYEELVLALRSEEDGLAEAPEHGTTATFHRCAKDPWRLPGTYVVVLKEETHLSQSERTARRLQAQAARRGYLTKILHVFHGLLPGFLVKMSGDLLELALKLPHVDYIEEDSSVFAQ
T1 sequence (A8T644 other isoform, or with tags, fused parts or gaps limits assumed, chain 2 of 2): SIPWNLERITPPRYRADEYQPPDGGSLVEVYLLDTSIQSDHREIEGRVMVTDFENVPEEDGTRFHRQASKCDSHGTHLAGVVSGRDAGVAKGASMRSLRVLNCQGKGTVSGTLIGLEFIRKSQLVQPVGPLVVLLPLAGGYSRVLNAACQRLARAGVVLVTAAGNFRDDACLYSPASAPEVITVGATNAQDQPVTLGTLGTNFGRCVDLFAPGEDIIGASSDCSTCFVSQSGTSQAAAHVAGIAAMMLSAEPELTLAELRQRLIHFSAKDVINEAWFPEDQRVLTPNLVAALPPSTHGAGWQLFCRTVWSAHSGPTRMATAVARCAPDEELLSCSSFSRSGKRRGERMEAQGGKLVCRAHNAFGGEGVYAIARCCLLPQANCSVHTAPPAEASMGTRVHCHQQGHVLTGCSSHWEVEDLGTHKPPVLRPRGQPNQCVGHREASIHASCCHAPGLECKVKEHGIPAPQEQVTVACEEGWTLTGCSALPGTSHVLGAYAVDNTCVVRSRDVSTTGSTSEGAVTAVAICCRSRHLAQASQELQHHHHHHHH

| IC50 [µM] | Binder |
| --- | --- |
| > 50 | Ac-WNLVRIGLLR-NH2 [Compound 53] |
| > 50 | B1 |
| > 50 | B2 |
| > 50 | B3 |
| > 50 | B4 |
| > 50 | Ac-PWNLVRIGLLR-NH2 [Compound 52] |
| > 50 | Ac-DLMPWNLVRIGLLR-NH2 [Compound 35] |
| > 50 | Ac-DLMPWNAVRIGLLR-NH2 [Compound 61] |
| > 50 | Ac-DLMAWNLVRIGLLR-NH2 [Compound 42] |
| > 50 | Ac-DLMPWNLVRAGLLR-NH2 [Compound 58] |
| > 50 | Ac-DLMPWNLVAIGLLR-NH2 [Compound 59] |
| > 50 | Ac-ALMPWNLVRIGLLR-NH2 [Compound 45] |
| > 50 | Ac-DLMPWNLVRIGALR-NH2 [Compound 56] |
| > 50 | Ac-DLMPWNLVRIGLLA-NH2 [Compound 54] |
| > 50 | Ac-DLAPWNLVRIGLLR-NH2 [Compound 43] |
| > 50 | Ac-DLMPANLVRIGLLR-NH2 [Compound 41] |
| > 50 | Ac-DLMPWALVRIGLLR-NH2 [Compound 62] |
| > 50 | Ac-DLMPWNLVRIGLAR-NH2 [Compound 55] |
| > 50 | Ac-DLMPWNLARIGLLR-NH2 [Compound 60] |
| > 50 | Ac-DAMPWNLVRIGLLR-NH2 [Compound 44] |
| > 50 | Ac-DLMPWNLVRIG-NH2 [Compound 48] |
| > 50 | Ac-LMPWNLVRIGLLR-NH2 [Compound 50] |
| > 50 | B5 |
| > 50 | Ac-DLMPWNLVRI-NH2 [Compound 49] |
| > 50 | Ac-WNLVRIGL-NH2 [Compound 120] |
| > 50 | Ac-DLMPWNLVRIGL-NH2 [Compound 47] |
| > 50 | Ac-PWNLVRIGL-NH2 [Compound 119] |
| > 50 | Ac-DLMPWNLVRIGLL-NH2 [Compound 46] |
| > 50 | Ac-MPWNLVRIGLLR-NH2 [Compound 51] |

biological target: T1, human PCSK9 (proprotein convertase …); assay: TR-FRET competition vs EGF(A)-Fc on His-PCSK9; remark: another data set of the same source

| IC50 [µM] | Binder |
| --- | --- |
| 0.49 | Ac-TVFTSWEEYLDWVGSGKLWNLGR-NH2 [Compound 4] |
| 0.5 | Ac-TVFTSWEEYLDWVGSGKLWN-NH2 [Compound 7] |
| 0.74 | Ac-TVFTSWEEYLDWVGSGKLWNL-NH2 [Compound 6] |
| 0.72 | Ac-TVFTSWEEYLDWVGSGKLWNLG-NH2 [Compound 5] |
| 0.388 | Ac-TVFTSWEEYLDWVGSGKLWNLGRV-NH2 [Compound 1] |

biological target: T1, human PCSK9 (proprotein convertase …); assay: SPR, SensiQ Pioneer FE, amine-coupled protein, OneStep gradient injection (Method 3)

| Kd [µM] | Binder |
| --- | --- |
| 223 | Ac-WNLVRIGLLR-NH2 [Compound 53] |
| 6.01 | 5FAM-SGSGCFIPWNLQRIGLLC-NH2 (disulfide 5-18 (inferred)) [Compound 33] |
| 17.9 | Ac-PWNLVRIGLLR-NH2 [Compound 52] |
| 117 | Ac-ALMPWNLVRIGLLR-NH2 [Compound 45] |
| 96.5 | Ac-DLMPWNLVRIGLAR-NH2 [Compound 55] |
| 1.3 | Ac-CRLPWNLQRIGLPC-NH2 (disulfide 1-14 (inferred)) [Compound 32] |
| 11 | B6 |
| 4.47 | 5FAM-SGSGCRLPWNLQRIGLPC-NH2 (disulfide 5-18 (inferred)) [Compound 34] |
| 16.1 | Ac-LMPWNLVRIGLLR-NH2 [Compound 50] |
| 46.4 | B7 |
| 118 | Ac-CRL[Ach]WNLQRIGLPC-NH2 (disulfide 1-14) [Compound 82] |
| 5.83 | Ac-CFIPWNLQRIGLLC-NH2 (disulfide 1-14 (inferred)) [Compound 31] |
| 522 | B8 |
| 26.2 | Ac-MPWNLVRIGLLR-NH2 [Compound 51] |

Reference: patent publication US20190177366A1 (published 2019)
